Measured values reported in patent publication US20090010911A1, “METHODS AND COMPOSITIONS FOR AFFECTING CYCLOPHILIN A REGULATION OF KINASES IN MODULATING CELLULAR ACTIVITIES” (IOWA STATE UNIVERSITY RESEARCH FOUNDATION, INC., priority 2007, published 2009).

T1: Itk kinase domain (Mus musculus, UniProt Q03526)
T1 construct: Purified 0.5 μM FLAG-tagged Itk kinase domain (Itk KD) immobilized on an anti-FLAG-resin; made in house; host or cells: Sf9 insect cells (baculovirus)
T1 sequence (Q03526 368-620 limits assumed): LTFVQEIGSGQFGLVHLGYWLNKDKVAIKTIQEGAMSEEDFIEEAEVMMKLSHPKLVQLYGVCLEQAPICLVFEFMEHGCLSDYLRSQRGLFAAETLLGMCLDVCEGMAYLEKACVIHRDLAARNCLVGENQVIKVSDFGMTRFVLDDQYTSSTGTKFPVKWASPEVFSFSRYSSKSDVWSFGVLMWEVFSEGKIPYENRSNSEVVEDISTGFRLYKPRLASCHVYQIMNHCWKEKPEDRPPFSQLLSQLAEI

B1: Itk SH2 domain: isolated exogenous SH2 domain of Itk, purified from bacteria (protein)
chain: EWYNKSISRDKAEKLLLDTGKEGAFMVRDSRTPGTYTVSVFTKAIISENPCIKHYHIKETNDSPKRYYVAEKYVFDSIPLLIQYHQYNGGGLVTRLRYPVCSWRQKA
B2: PLCγ1 SH2C domain: isolated carboxy-terminal SH2 domain of PLCγ1 (protein)
chain: QTNAHESKEWYHASLTRAQAEHMLMRVPRDGAFLVRKRNEPNSYAISFRAEGKIKHCRVQQEGQTVMLGNSEFDSLVDLISYYEKHPLYRKMKLRYPI

Target: T1, Itk kinase domain
Assay: Pull-down assay of SH2 domains with Itk kinase domain
Assay type: binding
Conditions: purified tagged proteins
Method: 3(a) Empty anti-FLAG resin (lane 1) or purified FLAG-tagged Itk kinase domain (Itk KD) immobilized on an anti-FLAG-resin (lanes 2 and 3) were incubated with purified myc-tagged control protein (lane 2) or myc-tagged Itk SH2 domain (lanes 1 and 3) in a pull-down assay. […] 3(b) Purified FLAG-tagged Itk KD (lane 1) was incubated with GST (lane 2) or GST-PLCγ1 C-terminal SH2 domain (GST-PLCγ1 SH2C) (lane 3) each immobilized on glutathione beads in a pull-down assay. […] One μM Itk 32 (lanes 1 and 3) or Itk 32 (R265K) (lanes 2 and 4), were incubated with 250 nM FLAG-tagged full-length Itk in an in vitro kinase assay. Lanes 1 and 2 are no enzyme control. […] One, 3, 5 and 10 μM PLCγ1 SH2C-Y783- (d) or PLCγ1 SH2C(R964A,R696A)-Y783- 3(e), were subjected to phosphorylation by 1.2 μM full-length FLAG-tagged Itk. Lanes 5 and 6 (containing 1 and 10 μM substrate, respectively) are no enzyme controls. Coomassie stain of the gels and anti-FLAG blots (bottom panels) show protein levels. (f & g) Interaction between the SH2 domain and Itk kinase domain is independent of the phosphorylation status of the kinase domain. […] Itk KD that is co-expressed with Lck but also pretreated with alkaline phosphatase is not phosphorylated (lane 3). […]

Molecule | interaction with Itk kinase domain (pull-down)
B1 | interacts directly
B2 | interacts directly
